In the Human Domainome abundance scans (Beltran et al. 2025) one finds abundance fitness data, which are given here for 50 variants.

± gives the uncertainty stated by the source.

B1: Protein S100-G, residues 1 to 79; numbered along this chain, P02633 (parent)
chain: MSAKKSPEELKGIFEKYAAKEGDPNQLSKEELKLLLQTEFPSLLKGPSTLDELFEELDKNGDGEVSFEEFQVLVKKISQ

This data set covers variants of B1. The data set can be described thus: abundance fitness (aPCA) (normalised: wild type 0, dead -1); higher = more abundant; growth selection in yeast, the domain comes from the species named. As to conditions: Bos taurus.
In the case of MSAKKSPEELKGIFEKYAAKEGDPNQLSKEELKLLLQTEFPSLLKGPSTLDELFEELDKNGDGEMSFEEFQVLVKKISQ [V65M], the abundance fitness turned out to be 0.025 ± 0.078.

As for MSAKKSPEELKGIFEKYAAKEGDPNQLSKEELKLLLQTEFPSLLKGPSTLSELFEELDKNGDGEVSFEEFQVLVKKISQ [D51S], the abundance fitness was -0.032 ± 0.062.

Regarding MSAKKSPEELKGIFEKYAAKEGDPNQLSKEELKLLLQTEFPSLLKGPITLDELFEELDKNGDGEVSFEEFQVLVKKISQ [S48I], the abundance fitness was 0.005 ± 0.075.

Turning to MSAKKSPEELKIIFEKYAAKEGDPNQLSKEELKLLLQTEFPSLLKGPSTLDELFEELDKNGDGEVSFEEFQVLVKKISQ [G12I], the abundance fitness was 0.088 ± 0.099.

For the variant MSAKKSPEELKFIFEKYAAKEGDPNQLSKEELKLLLQTEFPSLLKGPSTLDELFEELDKNGDGEVSFEEFQVLVKKISQ [G12F], the abundance fitness was -0.01 ± 0.087.

Take MSAKKSPEEQKGIFEKYAAKEGDPNQLSKEELKLLLQTEFPSLLKGPSTLDELFEELDKNGDGEVSFEEFQVLVKKISQ [L10Q]: the abundance fitness is -0.104 ± 0.077.

For MSAKKSPEEEKGIFEKYAAKEGDPNQLSKEELKLLLQTEFPSLLKGPSTLDELFEELDKNGDGEVSFEEFQVLVKKISQ [L10E], the abundance fitness is -0.202 ± 0.097.

On to MSAKKSPEELKGIFEKYAAKEGDPNQLSKEELKLLLQTEEPSLLKGPSTLDELFEELDKNGDGEVSFEEFQVLVKKISQ [F40E], for which the abundance fitness is -0.158 ± 0.094.

Turning to MSAKKSPEELKGIFEKYAAKEGDPNQLSKEELKLLLQTEYPSLLKGPSTLDELFEELDKNGDGEVSFEEFQVLVKKISQ [F40Y], the abundance fitness is -0.011 ± 0.074.

MSAKKSPEELKGIFEKYAAKEGSPNQLSKEELKLLLQTEFPSLLKGPSTLDELFEELDKNGDGEVSFEEFQVLVKKISQ [D23S]: the abundance fitness was -0.036 ± 0.067.

With MSAKKSPEELKGIFEKYAAKEGQPNQLSKEELKLLLQTEFPSLLKGPSTLDELFEELDKNGDGEVSFEEFQVLVKKISQ [D23Q], the abundance fitness is -0.046 ± 0.078.

In the case of MSAKKSPEELKGIFEKYAAKEGDPNQLSKEELKLLLQWEFPSLLKGPSTLDELFEELDKNGDGEVSFEEFQVLVKKISQ [T38W], the abundance fitness is -0.194 ± 0.089.

Take MSAKKSPEELKGIFEKYAAKEGDPNQLSKEELKLLLQTEFPSLLKGPSTLDELFEELDKNGDHEVSFEEFQVLVKKISQ [G63H]: the abundance fitness was 0.093 ± 0.086.

MSAKKSPEELKGIFEKYAAKEGDPNQLSKEELKLLLQTEFPSLLKGPSTLDELFEELDKNGDDEVSFEEFQVLVKKISQ [G63D]: the abundance fitness is -0.005 ± 0.094.

On to MSAKKSPEELKGIPEKYAAKEGDPNQLSKEELKLLLQTEFPSLLKGPSTLDELFEELDKNGDGEVSFEEFQVLVKKISQ [F14P], for which the abundance fitness was -1.33 ± 0.079.

As for MSAKKSPEELKGIFEKYAAKECDPNQLSKEELKLLLQTEFPSLLKGPSTLDELFEELDKNGDGEVSFEEFQVLVKKISQ [G22C], the abundance fitness was -0.264 ± 0.1.

For MSAKKSPEELKGIFEKYAAKEGDPNQLSKEELKLLLQTEFPSLLKGPSTLDELFKELDKNGDGEVSFEEFQVLVKKISQ [E55K], the abundance fitness was -0.047 ± 0.082.

As for MSAKKSPEELKGIFEKYAAKEGDPNQLSKEELKLLLQTEFPSLLKGPSYLDELFEELDKNGDGEVSFEEFQVLVKKISQ [T49Y], the abundance fitness worked out at 0 ± 0.073.

In the case of MSAKKSPEELKGIFEKYAAKEGDPNQLSIEELKLLLQTEFPSLLKGPSTLDELFEELDKNGDGEVSFEEFQVLVKKISQ [K29I], the abundance fitness came to 0.056 ± 0.091.

Take MSAKKSPEELKGIFEKYAAKEGDPNQLWKEELKLLLQTEFPSLLKGPSTLDELFEELDKNGDGEVSFEEFQVLVKKISQ [S28W]: the abundance fitness is -0.465 ± 0.091.

For the variant MSAKKSPEELKGIFEKYAAKEGDPNQLSKEELKLLLQTGFPSLLKGPSTLDELFEELDKNGDGEVSFEEFQVLVKKISQ [E39G], the abundance fitness was -0.809 ± 0.083.

As to MSAKKSPEELKGIFEKYAAKEGDPEQLSKEELKLLLQTEFPSLLKGPSTLDELFEELDKNGDGEVSFEEFQVLVKKISQ [N25E], the abundance fitness was -0.012 ± 0.092.

Consider MSTKKSPEELKGIFEKYAAKEGDPNQLSKEELKLLLQTEFPSLLKGPSTLDELFEELDKNGDGEVSFEEFQVLVKKISQ [A3T], for which the abundance fitness was -0.053 ± 0.07.

On to MSAKKSPEELKGIFEKYAAKEGDRNQLSKEELKLLLQTEFPSLLKGPSTLDELFEELDKNGDGEVSFEEFQVLVKKISQ [P24R], for which the abundance fitness was -0.007 ± 0.066.

As to MSAKKSPEELKGIFEKYAAKEGDYNQLSKEELKLLLQTEFPSLLKGPSTLDELFEELDKNGDGEVSFEEFQVLVKKISQ [P24Y], the abundance fitness is -0.075 ± 0.087.

As for MSAKKSPEELKGIFEKYAAKEGDINQLSKEELKLLLQTEFPSLLKGPSTLDELFEELDKNGDGEVSFEEFQVLVKKISQ [P24I], the abundance fitness worked out at 0.024 ± 0.09.

MSAKKSPEELKGIFEKYAAKEGDPNQLSKEELKLLLQTEFPSLLKGPSTLDELFEELDKNGDGEVSFEEFPVLVKKISQ [Q71P]: the abundance fitness is -0.25 ± 0.072.

As to MSAKKSPEELKGIFEKYAAKEGDPNQLSKEELKLLLQTEFPSLLKGPSTLDELFEELDKNGDGEVSFEEFAVLVKKISQ [Q71A], the abundance fitness is -0.031 ± 0.073.

As for MSAKKSPEELKGIFEKYAAKEGDPNQLSKEELKLLLQTEFPSLLKGPSTLDELFEELDKNGDGEVSFEEFEVLVKKISQ [Q71E], the abundance fitness stood at 0.068 ± 0.098.

With MSAKKSPEELKGIFEKYAAKEGDPNQLSKEELKLLLQTEFASLLKGPSTLDELFEELDKNGDGEVSFEEFQVLVKKISQ [P41A], the abundance fitness came out at 0.079 ± 0.074.

Take DSAKKSPEELKGIFEKYAAKEGDPNQLSKEELKLLLQTEFPSLLKGPSTLDELFEELDKNGDGEVSFEEFQVLVKKISQ [M1D]: the abundance fitness was -0.392 ± 0.13.

For MSAKKSPEELKGIFEKYAAKEGDPNQLSKEELKLLLQTEFPSLLKGPSTLDELFEELDKNGDGEVSFEEHQVLVKKISQ [F70H], the abundance fitness is -1 ± 0.083.

Turning to MSAKKSPEPLKGIFEKYAAKEGDPNQLSKEELKLLLQTEFPSLLKGPSTLDELFEELDKNGDGEVSFEEFQVLVKKISQ [E9P], the abundance fitness was -0.211 ± 0.073.

As for MSAKKSPEMLKGIFEKYAAKEGDPNQLSKEELKLLLQTEFPSLLKGPSTLDELFEELDKNGDGEVSFEEFQVLVKKISQ [E9M], the abundance fitness is -0.035 ± 0.081.

Regarding MSAKKSPELLKGIFEKYAAKEGDPNQLSKEELKLLLQTEFPSLLKGPSTLDELFEELDKNGDGEVSFEEFQVLVKKISQ [E9L], the abundance fitness was -0.073 ± 0.064.

As to MSAKKSPEELKGIFEKYAAKEGDPNQLSKCELKLLLQTEFPSLLKGPSTLDELFEELDKNGDGEVSFEEFQVLVKKISQ [E30C], the abundance fitness was -0.018 ± 0.086.

Consider MSAKKSPEELKGIFEKYAAKEGDPNQLSKNELKLLLQTEFPSLLKGPSTLDELFEELDKNGDGEVSFEEFQVLVKKISQ [E30N], for which the abundance fitness was 0.061 ± 0.085.

Take MSAKKSPEELKGIFEKYAAKEGDPNQLSKMELKLLLQTEFPSLLKGPSTLDELFEELDKNGDGEVSFEEFQVLVKKISQ [E30M]: the abundance fitness stood at 0.022 ± 0.08.

Take MSAKKSPEELKGIFEKYAAKEGDPNQLSKEELKLLLQTEFPSLLKGPSTLDELFEEKDKNGDGEVSFEEFQVLVKKISQ [L57K]: the abundance fitness was -0.071 ± 0.089.

For the variant MSAKKSPEELKGIFEKYAAKEGDPNQLSKEELKLLLQTEFPSLLKGPSTLDEVFEELDKNGDGEVSFEEFQVLVKKISQ [L53V], the abundance fitness worked out at 0.028 ± 0.066.

Consider MSAKKSPEELKGIFEKYAAKEGDPNQLSKEELKLLLQTEFPSLLKGPSTLDELFEELDKNGDGEVSFEEFQVLVKKIPQ [S78P], for which the abundance fitness amounted to 0.258 ± 0.41.

As for MSAKKSPEELKGIFEKYAAKEGDPNQLSKEELKLLLQTEFPSLLKGPSTLDELFEELDKCGDGEVSFEEFQVLVKKISQ [N60C], the abundance fitness is -0.102 ± 0.087.

Regarding MSAKKSPEELKGIFEKYAAKGGDPNQLSKEELKLLLQTEFPSLLKGPSTLDELFEELDKNGDGEVSFEEFQVLVKKISQ [E21G], the abundance fitness was -0.034 ± 0.08.

In the case of MSAKKSPEELKGIFEKYAAKWGDPNQLSKEELKLLLQTEFPSLLKGPSTLDELFEELDKNGDGEVSFEEFQVLVKKISQ [E21W], the abundance fitness was -0.236 ± 0.082.

As to MNAKKSPEELKGIFEKYAAKEGDPNQLSKEELKLLLQTEFPSLLKGPSTLDELFEELDKNGDGEVSFEEFQVLVKKISQ [S2N], the abundance fitness was 0.094 ± 0.087.

As to MSAKKSPLELKGIFEKYAAKEGDPNQLSKEELKLLLQTEFPSLLKGPSTLDELFEELDKNGDGEVSFEEFQVLVKKISQ [E8L], the abundance fitness is -0.029 ± 0.062.

As to MSAKKSPMELKGIFEKYAAKEGDPNQLSKEELKLLLQTEFPSLLKGPSTLDELFEELDKNGDGEVSFEEFQVLVKKISQ [E8M], the abundance fitness amounted to 0.014 ± 0.08.

For MSAKKSPEELKGSFEKYAAKEGDPNQLSKEELKLLLQTEFPSLLKGPSTLDELFEELDKNGDGEVSFEEFQVLVKKISQ [I13S], the abundance fitness is -0.26 ± 0.068.

Consider MSAKKKPEELKGIFEKYAAKEGDPNQLSKEELKLLLQTEFPSLLKGPSTLDELFEELDKNGDGEVSFEEFQVLVKKISQ [S6K], for which the abundance fitness is -0.204 ± 0.094.

Regarding MSAKKSPEELKGIFEKYAAKEGDPNQLSKEELKLLLQTEFPSLLKGPSTLDELFEELDKNGDGEVSFEEFQVYVKKISQ [L73Y], the abundance fitness was -0.05 ± 0.086.
